T1: GDF11 (UniProt O95390 299-407)
T1 construct: also called BMP11
T1 sequence (looked up): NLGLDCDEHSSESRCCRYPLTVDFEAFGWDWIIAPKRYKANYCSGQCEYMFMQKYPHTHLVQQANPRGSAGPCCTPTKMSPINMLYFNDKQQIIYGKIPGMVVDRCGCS


Target: T1, GDF11
Test: Biacore; ligand coupled to chip, receptor flowed over (table reproduced from WO2006/012627)

binding as fraction of WT binding | Binder
< 0.2 fold | Soluble ActRIIB-Fc K74Y (Fc fusion, not shown: a dimerising Fc or GST, From WO2006/012627; background 64A inferred) SGRGEAETRECIYYNANWELERTNQSGLERCEGEQDKRLHCYASWANSSGTIELVYKGCWLDDFNCYDRQECVATEENPQVYFCCCEGNFCNERFTHLPEA
< 0.2 fold | Soluble ActRIIB-Fc K74I (Fc fusion, not shown: a dimerising Fc or GST, From WO2006/012627; background 64A inferred) SGRGEAETRECIYYNANWELERTNQSGLERCEGEQDKRLHCYASWANSSGTIELVIKGCWLDDFNCYDRQECVATEENPQVYFCCCEGNFCNERFTHLPEA

The next lines start with the binder.

Binder | binding as fraction of WT binding
Soluble ActRIIB-Fc D80I (Fc fusion, not shown: a dimerising Fc or GST, From WO2006/012627; background 64A inferred) SGRGEAETRECIYYNANWELERTNQSGLERCEGEQDKRLHCYASWANSSGTIELVKKGCWLIDFNCYDRQECVATEENPQVYFCCCEGNFCNERFTHLPEA | < 0.2 fold
Soluble ActRIIB-Fc K74F (Fc fusion, not shown: a dimerising Fc or GST, From WO2006/012627; background 64A inferred) SGRGEAETRECIYYNANWELERTNQSGLERCEGEQDKRLHCYASWANSSGTIELVFKGCWLDDFNCYDRQECVATEENPQVYFCCCEGNFCNERFTHLPEA | < 0.2 fold

From US20250222069A1 (ACCELERON PHARMA, published 2025)
